Measurements taken from patent publication US20240321457A1 (University of California, published 2024).
Changes are numbered by the printed parent chain. Names and notes keep the numbering of the source.

B1: BRCA1 R71G (enzyme, human, UniProt P38398 1-1863, looked up)
chain: MDLSALRVEEVQNVINAMQKILECPICLELIKEPVSTKCDHIFCKFCMLKLLNQKKGPSQCPLCKNDITKGSLQESTRFSQLVEELLKIICAFQLDTGLEYANSYNFAKKENNSPEHLKDEVSIIQSMGYRNRAKRLLQSEPENPSLQETSLSVQLSNLGTVRTLRTKQRIQPQKTSVYIELGSDSSEDTVNKATYCSVGDQELLQITPQGTRDEISLDSAKKAACEFSETDVTNTEHHQPSNNDLNTTEKRAAERHPEKYQGSSVSNLHVEPCGTNTHASSLQHENSSLLLTKDRMNVEKAEFCNKSKQPGLARSQHNRWAGSKETCNDRRTPSTEKKVDLNADPLCERKEWNKQKLPCSENPRDTEDVPWITLNSSIQKVNEWFSRSDELLGSDDSHDGESESNAKVADVLDVLNEVDEYSGSSEKIDLLASDPHEALICKSERVHSKSVESNIEDKIFGKTYRKKASLPNLSHVTENLIIGAFVTEPQIIQERPLTNKLKRKRRPTSGLHPEDFIKKADLAVQKTPEMINQGTNQTEQNGQVMNITNSGHENKTKGDSIQNEKNPNPIESLEKESAFKTKAEPISSSISNMELELNIHNSKAPKKNRLRRKSSTRHIHALELVVSRNLSPPNCTELQIDSCSSSEEIKKKKYNQMPVRHSRNLQLMEGKEPATGAKKSNKPNEQTSKRHDSDTFPELKLTNAPGSFTKCSNTSELKEFVNPSLPREEKEEKLETVKVSNNAEDPKDLMLSGERVLQTERSVESSSISLVPGTDYGTQESISLLEVSTLGKAKTEPNKCVSQCAAFENPKGLIHGCSKDNRNDTEGFKYPLGHEVNHSRETSIEMEESELDAQYLQNTFKVSKRQSFAPFSNPGNAEEECATFSAHSGSLKKQSPKVTFECEQKEENQGKNESNIKPVQTVNITAGFPVVGQKDKPVDNAKCSIKGGSRFCLSSQFRGNETGLITPNKHGLLQNPYRIPPLFPIKSFVKTKCKKNLLEENFEEHSMSPEREMGNENIPSTVSTISRNNIRENVFKEASSSNINEVGSSTNEVGSSINEIGSSDENIQAELGRNRGPKLNAMLRLGVLQPEVYKQSLPGSNCKHPEIKKQEYEEVVQTVNTDFSPYLISDNLEQPMGSSHASQVCSETPDDLLDDGEIKEDTSFAENDIKESSAVFSKSVQKGELSRSPSPFTHTHLAQGYRRGAKKLESSEENLSSEDEELPCFQHLLFGKVNNIPSQSTRHSTVATECLSKNTEENLLSLKNSLNDCSNQVILAKASQEHHLSEETKCSASLFSSQCSELEDLTANTNTQDPFLIGSSKQMRHQSESQGVGLSDKELVSDDEERGTGLEENNQEEQSMDSNLGEAASGCESETSVSEDCSGLSSQSDILTTQQRDTMQHNLIKLQQEMAELEAVLEQHGSQPSNSYPSIISDSSALEDLRNPEQSTSEKAVLTSQKSSEYPISQNPEGLSADKFEVSADSSTSKNKEPGVERSSPSKCPSLDDRWYMHSCSGSLQNRNYPSQEELIKVVDVEEQQLEESGPHDLTETSYLPRQDLEGTPYLESGISLFSDDPESDPSEDRAPESARVGNIPSSTSALKVPQLKVAESAQSPAAAHTTDTAGYNAMEESVSREKPELTASTERVNKRMSMVVSGLTPEEFMLVYKFARKHHITLTNLITEETTHVVMKTDAEFVCERTLKYFLGIAGGKWVVSYFWVTQSIKERKMLNEHDFEVRGDVVNGRNHQGPKRARESQDRKIFRGLEICCYGPFTNMPTDQLEWMVQLCGASVVKELSSFTLGTGVHPIVVVQPDAWTEDNGFHAIGQMCEAPVVTREWVLDSVALYQCQELDTYLIPQIPHSHY
notes: 3xFLAG-tagged bait; also called RING domain mutant R71G
B2: BRCA1 S1655F (enzyme, human, UniProt P38398 1-1863, looked up)
chain: B1 chain with G71R, S1655F
notes: 3xFLAG-tagged bait; also called BRCT domain mutant S1655F; 51655F
B3: BRCA1 5382insC (enzyme, human, UniProt P38398 1-1755, looked up)
chain: MDLSALRVEEVQNVINAMQKILECPICLELIKEPVSTKCDHIFCKFCMLKLLNQKKGPSQCPLCKNDITKRSLQESTRFSQLVEELLKIICAFQLDTGLEYANSYNFAKKENNSPEHLKDEVSIIQSMGYRNRAKRLLQSEPENPSLQETSLSVQLSNLGTVRTLRTKQRIQPQKTSVYIELGSDSSEDTVNKATYCSVGDQELLQITPQGTRDEISLDSAKKAACEFSETDVTNTEHHQPSNNDLNTTEKRAAERHPEKYQGSSVSNLHVEPCGTNTHASSLQHENSSLLLTKDRMNVEKAEFCNKSKQPGLARSQHNRWAGSKETCNDRRTPSTEKKVDLNADPLCERKEWNKQKLPCSENPRDTEDVPWITLNSSIQKVNEWFSRSDELLGSDDSHDGESESNAKVADVLDVLNEVDEYSGSSEKIDLLASDPHEALICKSERVHSKSVESNIEDKIFGKTYRKKASLPNLSHVTENLIIGAFVTEPQIIQERPLTNKLKRKRRPTSGLHPEDFIKKADLAVQKTPEMINQGTNQTEQNGQVMNITNSGHENKTKGDSIQNEKNPNPIESLEKESAFKTKAEPISSSISNMELELNIHNSKAPKKNRLRRKSSTRHIHALELVVSRNLSPPNCTELQIDSCSSSEEIKKKKYNQMPVRHSRNLQLMEGKEPATGAKKSNKPNEQTSKRHDSDTFPELKLTNAPGSFTKCSNTSELKEFVNPSLPREEKEEKLETVKVSNNAEDPKDLMLSGERVLQTERSVESSSISLVPGTDYGTQESISLLEVSTLGKAKTEPNKCVSQCAAFENPKGLIHGCSKDNRNDTEGFKYPLGHEVNHSRETSIEMEESELDAQYLQNTFKVSKRQSFAPFSNPGNAEEECATFSAHSGSLKKQSPKVTFECEQKEENQGKNESNIKPVQTVNITAGFPVVGQKDKPVDNAKCSIKGGSRFCLSSQFRGNETGLITPNKHGLLQNPYRIPPLFPIKSFVKTKCKKNLLEENFEEHSMSPEREMGNENIPSTVSTISRNNIRENVFKEASSSNINEVGSSTNEVGSSINEIGSSDENIQAELGRNRGPKLNAMLRLGVLQPEVYKQSLPGSNCKHPEIKKQEYEEVVQTVNTDFSPYLISDNLEQPMGSSHASQVCSETPDDLLDDGEIKEDTSFAENDIKESSAVFSKSVQKGELSRSPSPFTHTHLAQGYRRGAKKLESSEENLSSEDEELPCFQHLLFGKVNNIPSQSTRHSTVATECLSKNTEENLLSLKNSLNDCSNQVILAKASQEHHLSEETKCSASLFSSQCSELEDLTANTNTQDPFLIGSSKQMRHQSESQGVGLSDKELVSDDEERGTGLEENNQEEQSMDSNLGEAASGCESETSVSEDCSGLSSQSDILTTQQRDTMQHNLIKLQQEMAELEAVLEQHGSQPSNSYPSIISDSSALEDLRNPEQSTSEKAVLTSQKSSEYPISQNPEGLSADKFEVSADSSTSKNKEPGVERSSPSKCPSLDDRWYMHSCSGSLQNRNYPSQEELIKVVDVEEQQLEESGPHDLTETSYLPRQDLEGTPYLESGISLFSDDPESDPSEDRAPESARVGNIPSSTSALKVPQLKVAESAQSPAAAHTTDTAGYNAMEESVSREKPELTASTERVNKRMSMVVSGLTPEEFMLVYKFARKHHITLTNLITEETTHVVMKTDAEFVCERTLKYFLGIAGGKWVVSYFWVTQSIKERKMLNEHDFEVRGDVVNGRNHQGPKRARESPGQKDLQGARNLLLWALHQHAHRSTGMDGTAVWCFCGEGAFIIHPWHRCPPNCGCAARCLDRGQWLPCNWADV
notes: 3xFLAG-tagged bait; also called 5832insC
B4: BRIP1 (enzyme, human, UniProt Q9BX63 1-1249, looked up)
chain: MSSMWSEYTIGGVKIYFPYKAYPSQLAMMNSILRGLNSKQHCLLESPTGSGKSLALLCSALAWQQSLSGKPADEGVSEKAEVQLSCCCACHSKDFTNNDMNQGTSRHFNYPSTPPSERNGTSSTCQDSPEKTTLAAKLSAKKQASIYRDENDDFQVEKKRIRPLETTQQIRKRHCFGTEVHNLDAKVDSGKTVKLNSPLEKINSFSPQKPPGHCSRCCCSTKQGNSQESSNTIKKDHTGKSKIPKIYFGTRTHKQIAQITRELRRTAYSGVPMTILSSRDHTCVHPEVVGNFNRNEKCMELLDGKNGKSCYFYHGVHKISDQHTLQTFQGMCKAWDIEELVSLGKKLKACPYYTARELIQDADIIFCPYNYLLDAQIRESMDLNLKEQVVILDEAHNIEDCARESASYSVTEVQLRFARDELDSMVNNNIRKKDHEPLRAVCCSLINWLEANAEYLVERDYESACKIWSGNEMLLTLHKMGITTATFPILQGHFSAVLQKEEKISPIYGKEEAREVPVISASTQIMLKGLFMVLDYLFRQNSRFADDYKIAIQQTYSWTNQIDISDKNGLLVLPKNKKRSRQKTAVHVLNFWCLNPAVAFSDINGKVQTIVLTSGTLSPMKSFSSELGVTFTIQLEANHIIKNSQVWVGTIGSGPKGRNLCATFQNTETFEFQDEVGALLLSVCQTVSQGILCFLPSYKLLEKLKERWLSTGLWHNLELVKTVIVEPQGGEKTNFDELLQVYYDAIKYKGEKDGALLVAVCRGKVSEGLDFSDDNARAVITIGIPFPNVKDLQVELKRQYNDHHSKLRGLLPGRQWYEIQAYRALNQALGRCIRHRNDWGALILVDDRFRNNPSRYISGLSKWVRQQIQHHSTFESALESLAEFSKKHQKVLNVSIKDRTNIQDNESTLEVTSLKYSTSPYLLEAASHLSPENFVEDEAKICVQELQCPKIITKNSPLPSSIISRKEKNDPVFLEEAGKAEKIVISRSTSPTFNKQTKRVSWSSFNSLGQYFTGKIPKATPELGSSENSASSPPRFKTEKMESKTVLPFTDKCESSNLTVNTSFGSCPQSETIISSLKIDATLTRKNHSEHPLCSEEALDPDIELSLVSEEDKQSTSNRDFETEAEDESIYFTPELYDPEDTDEEKNDLAETDRGNRLANNSDCILAKDLFEIRTIKEVDSAREVKAEDCIDTKLNGILHIEESKIDDIDGNVKTTWINELELGKTHEIEIKNFKPSPSKNKGMFPGFK
notes: endogenous prey from cell lysate

Assays:
UBE2N = molecular target: T1, UBE2N (human, UniProt P61088 1-152); assay: AP-MS, PPI score from compPASS and SAINTexpress, MDA-MB-231 cells
T1 construct: endogenous prey from cell lysate; also called UBC13
T1 sequence (looked up): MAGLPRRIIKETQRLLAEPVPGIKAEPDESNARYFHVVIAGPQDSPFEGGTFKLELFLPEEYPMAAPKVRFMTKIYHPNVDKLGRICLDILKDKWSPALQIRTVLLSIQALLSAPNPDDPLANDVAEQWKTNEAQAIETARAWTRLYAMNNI
Description: For AP-MS experiments, samples were resuspended in 15 μL of MS loading buffer (4% formic acid, 2% acetonitrile) and 2 μL were separated by a reversed-phase gradient over a nanoflow 75 μm ID×25 cm long picotip column packed with 1.9 μM C18 particles (Dr. Maisch). Peptides were directly injected over the course of a 75 min acquisition into a Q-Exactive Plus mass spectrometer (Thermo), or over the course of a 90 min acquisition into a Orbitrap Elite mass spectrometer. […] Peptides and proteins were filtered to 1% false discovery rate in MaxQuant, and identified proteins were then subjected to protein-protein interaction scoring.
All PPI scoring was performed separately for each cell line. For SAINTexpress, control samples in which bait protein was not induced by addition of doxycycline were used. For CompPASS, a stats table representing all WT baits was used. After scoring, the CompPASS WD and Z-score were normalized within a given bait for each cell line. The total list of candidate PPIs was filtered to those that met the following criteria: SAINTexpress BFDR=<0.05, WD percentile by bait>=0.95, and Z-score percentile by bait≤=0.95. PPIs passing all 3 of these criteria were considered to be high-confidence PPIs. To enable visualization and analysis of PPIs by confidence score among these 3 criteria, a PPI score was calculated: [(WD percentile by bait+Z-score percentile by bait)/2)+(1−BFDR)]/2.

BRCA1 5382insC = molecular target: B3; assay: AP-MS, MSstats WT vs mutant, MDA-MB-231 cells
BRCA1 S1655F = molecular target: B2; assay: AP-MS, MSstats WT vs mutant, MDA-MB-231 cells
BRCA1 M1775R = molecular target: T2, BRCA1 M1775R (human, UniProt P38398 1-1863); assay: AP-MS, MSstats WT vs mutant, MDA-MB-231 cells
T2 construct: 3xFLAG-tagged bait; also called BRCT domain mutant M1775R

PPI score (UBE2N) | binding result (BRCA1 5382insC) | binding result (BRCA1 S1655F) | binding result (BRCA1 M1775R) | Binder
< 0.6 |  |  |  | B1
< 0.6 |  |  |  | B2
< 0.6 |  |  |  | B3
 | no binding | no binding | no binding | B4
